Sequences and labels used below:
B1: TPR t1 (parent)
chain: GACCAAUCUGCCCUCAGAGCUCGAGAACAUCUUCGGAUGCAGAGGAGGCAGGCUUCGGUGGCGCGAUAGCGCCAACGUCCUCAACCUCCAAUGCAUCCCACCACAUGAUGAUGCCUGAAGAGCCUUGGUUUUUUG

167 variants from the RNAGym collection of RNA variant scans (doi:10.1073/pnas.2313332121) can be followed below.

The data set covers variants of B1. As to the kind of experiment: polymerase ribozyme fitness, log enrichment relative to wild type (log ratio); higher = more active; in vitro selection for triplet polymerase activity. Put shortly: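 PCR was used to build mutant libraries for each subunit of a heterodimeric triplet polymerase ribozyme, which were then transcribed. A single in vitro selection round, in triplicate, used a frozen incubation at −7 °C and recovered extended constructs by gel excision, streptavidin beads and RT-PCR. Fitness is the logarithm of genotype enrichment relative to wild-type enrichment, averaged over replicates with inverse-variance weights. The logarithm is base 2, and after Illumina sequencing only genotypes with ≥10 input reads and ≥1 read per output were kept.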
Consider C70U A105G G113A, for which the “polymerase ribozyme fitness (log ratio)” value was -4.28. On to C70U A105C, for which the “polymerase ribozyme fitness (log ratio)” value was -3.43. The value for G69A A91C was -5.04. C64U C73U: the “polymerase ribozyme fitness (log ratio)” value was found to be 0.562. With G69A C88A C123G C124A G135U, the “polymerase ribozyme fitness (log ratio)” value was -3.37. As for C70U C80A U87A, the figure is -5. As for C70U C80A A95G A111G, the figure is -5.34; as for G69C C97A, -6.49; as for G69C C86G, -2.97. Regarding A66G C101A C104A U112A C114U, the “polymerase ribozyme fitness (log ratio)” value was -5.6. For C64G A111G, the “polymerase ribozyme fitness (log ratio)” value was -5.39.

As for G69U U78A A91U A111C, the “polymerase ribozyme fitness (log ratio)” value was -0.0328. The value for C70A G93C was -3.33. As for C64U G113A, the figure is -1.32; as for G69U C70G C88U C115A, -0.11.

In the case of C70A U78C G113A, the “polymerase ribozyme fitness (log ratio)” value is -2.47.

Consider G69U A91C C114A C124U U126C, for which the “polymerase ribozyme fitness (log ratio)” value was -2.19.

In the case of G65C C114G, the “polymerase ribozyme fitness (log ratio)” value was -6.28.

With G63U C99U, the “polymerase ribozyme fitness (log ratio)” value was -4.73. As for G69U G93C A95U A103U C114U, the figure is -3.98; as for C64U C73U G117C, -3.17; as for G63U C114A U133A, -3.35. Turning to C64U C82U, the “polymerase ribozyme fitness (log ratio)” value was -2.09. The value for A68G U81A C99U A111U C124U was -5.02; that for C70G G135U was -3.49. G69A A95C G113A: the “polymerase ribozyme fitness (log ratio)” value is -3.61. Turning to G69C G120A, the “polymerase ribozyme fitness (log ratio)” value is -0.926. For the variant G69U U78G A91C U92G, the “polymerase ribozyme fitness (log ratio)” value was -0.788. With G69U U78G C79A U116A U129G, the “polymerase ribozyme fitness (log ratio)” value was -5.04.

On to G65C C101U, for which the “polymerase ribozyme fitness (log ratio)” value is -4.71. Turning to C64U C85U, the “polymerase ribozyme fitness (log ratio)” value was -1.42. The value for G65U G120U was -5.78; that for G69U C102U A121U was -3.9; that for G63U C114A G122U was -3.44. In the case of G69C G128C, the “polymerase ribozyme fitness (log ratio)” value is -3.85. As for G69A C73A C82A G120A G128A, the figure is -3.86; as for C64U C89G A91U C97U C115U, -2.63. As for G69U C80G, the figure is -2.32; as for C64U C104G U109A, -6.28. Consider C70G U126C, for which the “polymerase ribozyme fitness (log ratio)” value is -3.27. The value for A68G A100U U133A was -3.27; that for G63U U92G G93C C98G A121G was -5.9. As for C70U C80U G113C A119G, the figure is -3.1; as for G69C C73A, -1.18.

Take C64U A95G G117C: the “polymerase ribozyme fitness (log ratio)” value is -4.22. The value for C70U C88A A119G U131A was 1.21.

Consider C70A C72G C102A C104A, for which the “polymerase ribozyme fitness (log ratio)” value is -6.86. With C70U A95G, the “polymerase ribozyme fitness (log ratio)” value was -0.166.

Take G63U C114A U125A: the “polymerase ribozyme fitness (log ratio)” value is -4.22. In the case of G69U G93A A118G G135U, the “polymerase ribozyme fitness (log ratio)” value is -0.918.

Consider C70G C123A, for which the “polymerase ribozyme fitness (log ratio)” value is -2.21. As for C70G U78C C82G A91C, the figure is -5.79; as for C64U A66U, -0.148. For A66U A75U G113A, the “polymerase ribozyme fitness (log ratio)” value was -2.74. Regarding G69U C94U C101A, the “polymerase ribozyme fitness (log ratio)” value was -0.271.

Regarding G63U G120C G128C, the “polymerase ribozyme fitness (log ratio)” value is -4.02. Take G69U U87A: the “polymerase ribozyme fitness (log ratio)” value was determined as 0.245. The value for A66G U96C A118U was -1.1; that for A66U C70U C88G was -2.66; that for C64U C80U was 0.0248. As to C70U C72U A121G, the “polymerase ribozyme fitness (log ratio)” value is 1.38. The value for C64G U81A G120C was -6.58; that for C64U C88U U106A U130A was -0.803. As for A66U U78C U87A A111U, the figure is -4.73; as for C64G U81G C101A G113A, -6.96. For the variant G69C U92A, the “polymerase ribozyme fitness (log ratio)” value was -5.61. Turning to G69A G93A G113C, the “polymerase ribozyme fitness (log ratio)” value is -6.22. As for C70U C85U U126A, the figure is -3.11. As for G69U C99A, the figure is -3.23. As for G69U C99G, the figure is -6.24; as for G63U C97U C98U G113A A118G U134G, -3.87; as for A66U G128A, -3.15.

Take C64U A74G U78A: the “polymerase ribozyme fitness (log ratio)” value is -2.93. The value for A66C A105U A108G C124A was -7.55.

In the case of G69U U87C C104A, the “polymerase ribozyme fitness (log ratio)” value was -0.553. The value for A68G C115U was -3.75; that for U67C was -2.8; that for U67G was -7.14. As for U67A, the figure is -5.73. The value for A68G G113U was -4.53. Regarding G69A G120C, the “polymerase ribozyme fitness (log ratio)” value is -0.596. As to G69A G120A, the “polymerase ribozyme fitness (log ratio)” value was -1.48. With G69U A91U C99U U109G, the “polymerase ribozyme fitness (log ratio)” value is -3.63. With G69U C86G C94U C124G G135A, the “polymerase ribozyme fitness (log ratio)” value was determined as 0.0412. As for C70U C97A G113C A119U G127C, the figure is -5.36.

Turning to A66C G113A, the “polymerase ribozyme fitness (log ratio)” value was -1.78.

As for C64U A83U, the “polymerase ribozyme fitness (log ratio)” value was 0.866. The value for C70G U96C was -2.6; that for G63U U78A was -0.683; that for G63U C79G was -3.17. C70G G110A: the “polymerase ribozyme fitness (log ratio)” value is -4.37. Consider G63U C123U, for which the “polymerase ribozyme fitness (log ratio)” value was -0.374.

Take C64A C70G A95U G110C C114U: the “polymerase ribozyme fitness (log ratio)” value was -5.6. For the variant C70A A91G, the “polymerase ribozyme fitness (log ratio)” value was -2.74. Turning to C70G U129C, the “polymerase ribozyme fitness (log ratio)” value was -3.02. Turning to A68G C97A, the “polymerase ribozyme fitness (log ratio)” value is -7.14. Take C64U C72U: the “polymerase ribozyme fitness (log ratio)” value was -0.106. As for G69C A83U C99A C102A, the figure is -6.91; as for C64U U130C, -0.0426. On to A68G U78C, for which the “polymerase ribozyme fitness (log ratio)” value was -3.07.

As to G69A G110C, the “polymerase ribozyme fitness (log ratio)” value was -6.02. As to G69A G110A, the “polymerase ribozyme fitness (log ratio)” value is -3.77.

As for A68U A121U, the “polymerase ribozyme fitness (log ratio)” value is -6.36. For the variant A68U A121G, the “polymerase ribozyme fitness (log ratio)” value is -6.65. For the variant A66C A74C A111C, the “polymerase ribozyme fitness (log ratio)” value is -2.24. The value for G69C U106A was -1.14; that for G63U A119G was -0.465; that for G63U A119U was -0.897. For G69A A75G U96C, the “polymerase ribozyme fitness (log ratio)” value is -3.29. As for G69A C102U, the figure is -4.72; as for C64U U81A, -0.925. The value for G69C U96G U106C was -3.19; that for C70U C97U C101U C102A was -4.84; that for G69C C86A C94U C114U was -6.26. Consider C70A U130G, for which the “polymerase ribozyme fitness (log ratio)” value was -2.49. C64G U78C: the “polymerase ribozyme fitness (log ratio)” value was -6.9.

For C70U A83C A108G, the “polymerase ribozyme fitness (log ratio)” value was -2.22.

As for C70G G93A, the “polymerase ribozyme fitness (log ratio)” value is -4.33.

As to C70G G93C, the “polymerase ribozyme fitness (log ratio)” value is -4.94. The value for C70A C104A was -3.24; that for G69A U129G was -3.2; that for A68G U132A was -3.13. The value for A66G C123G U133A was 1.16; that for C64A C89A G117C G135U was -5.9; that for C70U C102U was -2.39. As for G69U G120C, the figure is 1.2; as for G69U G120A, 1.25; as for G63U C88U, -2.31. On to C64U A111C C115A G127A, for which the “polymerase ribozyme fitness (log ratio)” value was -4.2. For A66G C72U G107A C123A, the “polymerase ribozyme fitness (log ratio)” value is -6.86. G69A U116C: the “polymerase ribozyme fitness (log ratio)” value was -3.45.

C64U C124G: the “polymerase ribozyme fitness (log ratio)” value worked out at 1.78. The value for C70A C114A was -2.64. The value for G69U C79G was -1.63; that for G69C A95G was -1.13. The value for G69U U92A U130A was -1.5; that for C64U C88U C97U was -0.745; that for A66C U92A was -6.51. Take C64U C79U C85A A105G: the “polymerase ribozyme fitness (log ratio)” value is -5.05. As for C70U A90G C101A C123A, the figure is -1.13; as for C70A G117U, -4.09. As for C70U C82G, the figure is -0.344. Take C64U G77A G93C C98U G120A C124G: the “polymerase ribozyme fitness (log ratio)” value is -1.69. As for C70A C86G C102A, the figure is -4.88; as for C64U C88A, -0.544. The value for C64U C88U was -0.605; that for G69U C115G was -0.0637. Turning to C64U C101A G110C, the “polymerase ribozyme fitness (log ratio)” value is -7.07. The value for C70U C82A G113A was -1.84; that for C70A C114A A119U was -4.59. Turning to C70G U130A, the “polymerase ribozyme fitness (log ratio)” value was -3.16. For G63U G135U, the “polymerase ribozyme fitness (log ratio)” value is -2.37. As for G65A U87G, the figure is -5.9.

Turning to U67A C70G C89G C123G, the “polymerase ribozyme fitness (log ratio)” value was -6.22. As for A66U G77A, the figure is -0.981; as for C64U C97U, -1.3. The value for C70U C104U was -0.703; that for G69U U132A was 0.176. For C70A C80A U126C, the “polymerase ribozyme fitness (log ratio)” value is -5.37.

Consider G69A C124U, for which the “polymerase ribozyme fitness (log ratio)” value is -1.25.

Take C70A U78A C115U: the “polymerase ribozyme fitness (log ratio)” value is -4.18.

As for A68G C73G C82U, the “polymerase ribozyme fitness (log ratio)” value was -5.21. The value for G63U G71C G113A was -6.74; that for C70G C94U was -3. The value for G69U C86G was 0.0893; that for A68U U112A was -5.84. The value for C70A C98U was -2.73.
